These are literature values, as cited in patent publication US20230279355A1, “METHOD FOR THE IN VITRO OR EX VIVO AMPLIFICATION OF STEM CELLS OF BROWN OR BEIGE ADIPOCYTES” (CENTRE NATIONAL DE LA RECHERCHE SCIENTIFIQUE, priority 2020, published 2023).

The test system of this data set is UCP1. The note with it: described in the literature.

B1: Epidermal Growth Factor (protein, UniProt P01133 23-1207, looked up)
Pro-epidermal growth factor: PQHWSCPEGTLAGNGNSTCVGPAPFLIFSHGNSIFRIDTEGTNYEQLVVDAGVSVIMDFHYNEKRIYWVDLERQLLQRVFLNGSRQERVCNIEKNVSGMAINWINEEVIWSNQQEGIITVTDMKGNNSHILLSALKYPANVAVDPVERFIFWSSEVAGSLYRADLDGVGVKALLETSEKITAVSLDVLDKRLFWIQYNREGSNSLICSCDYDGGSVHISKHPTQHNLFAMSLFGDRIFYSTWKMKTIWIANKHTGKDMVRINLHSSFVPLGELKVVHPLAQPKAEDDTWEPEQKLCKLRKGNCSSTVCGQDLQSHLCMCAEGYALSRDRKYCEDVNECAFWNHGCTLGCKNTPGSYYCTCPVGFVLLPDGKRCHQLVSCPRNVSECSHDCVLTSEGPLCFCPEGSVLERDGKTCSGCSSPDNGGCSQLCVPLSPVSWECDCFPGYDLQLDEKSCAASGPQPFLLFANSQDIRHMHFDGTDYGTLLSQQMGMVYALDHDPVENKIYFAHTALKWIERANMDGSQRERLIEEGVDVPEGLAVDWIGRRFYWTDRGKSLIGRSDLNGKRSKIITKENISQPRGIAVHPMAKRLFWTDTGINPRIESSSLQGLGRLVIASSDLIWPSGITIDFLTDKLYWCDAKQSVIEMANLDGSKRRRLTQNDVGHPFAVAVFEDYVWFSDWAMPSVMRVNKRTGKDRVRLQGSMLKPSSLVVVHPLAKPGADPCLYQNGGCEHICKKRLGTAWCSCREGFMKASDGKTCLALDGHQLLAGGEVDLKNQVTPLDILSKTRVSEDNITESQHMLVAEIMVSDQDDCAPVGCSMYARCISEGEDATCQCLKGFAGDGKLCSDIDECEMGVPVCPPASSKCINTEGGYVCRCSEGYQGDGIHCLDIDECQLGEHSCGENASCTNTEGGYTCMCAGRLSEPGLICPDSTPPPHLREDDHHYSVRNSDSECPLSHDGYCLHDGVCMYIEALDKYACNCVVGYIGERCQYRDLKWWELRHAGHGQQQKVIVVAVCVVVLVMLLLLSLWGAHYYRTQKLLSKNPKNPYEESSRDVRSRRPADTEDGMSSCPQPWFVVIKEHQDLKNGGQPVAGEDGQAADGSMQPTSWRQEPQLCGMGTEQGCWIPVSSDKGSCPQVMERSFHMPSYGTQTLEGGVEKPHSLLSANPLWQQRALDPPHQMELTQ
modifications: Pro-epidermal growth factor
B1: the “expression of UCP1” value was “able to inhibit the expression of UCP1”.
